The record followed here is publication PMC5986272, “Biosynthetic tailoring of existing ascaroside pheromones alters their biological function in C. elegans” (eLife, 2018).

One data set addresses T1, ACOX-1.1 (Caenorhabditis elegans, UniProt O62140).
T1 construct: pET-16b-acox-1.1a, expressed in E. coli and purified, homodimer
T1 sequence (O62140 1-674): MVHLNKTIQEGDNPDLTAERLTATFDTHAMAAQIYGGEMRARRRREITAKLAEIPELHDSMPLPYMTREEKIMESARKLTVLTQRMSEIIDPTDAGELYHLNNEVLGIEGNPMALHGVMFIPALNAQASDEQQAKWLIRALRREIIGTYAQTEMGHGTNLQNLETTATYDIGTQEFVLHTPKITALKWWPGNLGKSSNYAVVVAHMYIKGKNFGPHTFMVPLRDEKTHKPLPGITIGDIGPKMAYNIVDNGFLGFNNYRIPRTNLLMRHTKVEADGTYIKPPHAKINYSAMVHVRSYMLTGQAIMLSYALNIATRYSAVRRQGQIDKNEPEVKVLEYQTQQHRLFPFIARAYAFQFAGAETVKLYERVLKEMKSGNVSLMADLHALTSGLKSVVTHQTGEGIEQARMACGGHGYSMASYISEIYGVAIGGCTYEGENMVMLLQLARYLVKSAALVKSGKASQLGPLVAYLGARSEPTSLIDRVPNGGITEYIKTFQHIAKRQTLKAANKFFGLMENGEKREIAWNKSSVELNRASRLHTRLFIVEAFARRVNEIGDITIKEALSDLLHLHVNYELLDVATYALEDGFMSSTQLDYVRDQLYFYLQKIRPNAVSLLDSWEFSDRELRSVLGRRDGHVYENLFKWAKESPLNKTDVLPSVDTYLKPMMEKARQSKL
As to the kind of experiment: LC-MS assay with MAOC-1, DHS-28, DAF-22; peroxidase-coupled H2O2 assay. Type of data set: biochemical. The settings on record: LC-MS: 40 μM substrate, 20 μM FAD, 20 μM NAD+, 200 μM CoA, pH 7.5, 30 °C; coupled: 24 µM substrate, ~23 °C.

Substrate in the data set “purified protein”: C[C@H](CCCCCCC(=O)O)O[C@@H]1O[C@@H](C)[C@H](OC(=O)c2c[nH]c3ccccc23)C[C@H]1O
The experiment in a line: purified protein. The format is biochemical, Caenorhabditis elegans. The settings on record: 7.5 mM ATP, 1 mM CoA, 10 mM MgCl2, 1.6 mM Triton X-100, pH 7.4, 22 °C.

In the case of `C[C@H](CCCCCCC(=O)SCCNC(=O)CCNC(=O)[C@H](O)C(C)(C)COP(=O)(O)OP(=O)(O)OC[C@H]1O[C@@H](n2cnc3c(N)ncnc32)[C@H](O)[C@@H]1OP(=O)(O)O)O[C@@H]1O[C@@H](C)[C@H](OC(=O)c2c[nH]c3ccccc23)C[C@H]1O` [IC-asc-C9-CoA], on ACOX-1.1, the “LC-MS assay with MAOC-1, DHS-28, DAF-22; peroxidase-coupled H2O2 assay” value was “It also showed activity towards IC-asc-C9-CoA, but less than towards IC-asc-C7-CoA”.

B1: ACS-7 (Caenorhabditis elegans) (protein)
chain: MIFHGEQLENHDKPVHEVLLERFKVHQEKDPDNVAFVTAENEDDSLGFQQLGKKVLQISEWFVENGYKKGDVFLLASYNNWRCFAAALGAWRAGLIVSAAASQFTSFEMNYQIEDSQSQVILVDKHTLPVVQEACKNLKFVKQIISISANPPSPVIKFDVLTSRLVRNLKMPLIDPKNDIVFLPYSSGTTGKPKGVMISHLNFSMMLESSLRFFDANAKAIGLPPDFVLPYDLHFLPMYHAMGMFRTLLTSYRGTTQIMFTKFDMELMLKNIEKYSIMVLSLVPAIAVRMLNSPLLQKYDVSSLVSVTVGSAPFPESASKKLKQLLPNVNIVQGYGMTELTFATHLQSPGSPDGSVGRLVPGTSMKVKKEDGTLCGPHEIGELWIKGPQMMKGYWKKEQQTNELLDEHGFMRTGDIVYFDKNGETFICDRIKELIKVNAKQVAPAELESVILEHDDVADVCVFGVDDASSGERPVACVVSKRGRDMETSKAIMKHINQKLARYKHIKEIEFVSEIMRTGTGKLLRRAMKKAFLDAKKAKL
notes: full-length from cDNA library, pET-22b (NdeI/XhoI), His-tagged, E. coli BL21(DE3), Ni-NTA and Superdex 200
As to B1, in the data set “purified protein”, the Km was 14.5 ± 3.0 µM and the catalytic constant (kcat) was 0.53 ± 0.08 s⁻¹.
